{
  "source": "the RNAGym collection of RNA variant scans (doi:10.1073/pnas.2313332121)",
  "parents": {"B1": {"name": "TPR t1 (parent)", "chain": "GACCAAUCUGCCCUCAGAGCUCGAGAACAUCUUCGGAUGCAGAGGAGGCAGGCUUCGGUGGCGCGAUAGCGCCAACGUCCUCAACCUCCAAUGCAUCCCACCACAUGAUGAUGCCUGAAGAGCCUUGGUUUUUUG"}},
  "data": [
    {"variants_of": "B1", "test": "polymerase ribozyme fitness, log enrichment relative to wild type (log ratio); higher = more active; in vitro selection for triplet polymerase activity", "how_it_was_run": "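Genotype fitness is the logarithm of its enrichment divided by wild-type enrichment, using inverse-variance-weighted averages of replicates. That logarithm is base 2. Enrichment was measured by Illumina sequencing of input and output libraries from one triplicate in vitro selection round, with frozen incubation at −7 °C, on PCR-built, transcribed mutant libraries of each subunit of a heterodimeric triplet polymerase ribozyme, retaining genotypes with ≥10 input reads and ≥1 read per output.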", "values": [
      {"variant": "U55G C88G", "polymerase ribozyme fitness (log ratio)": -0.483},
      {"variant": "U55C U106G", "polymerase ribozyme fitness (log ratio)": -1.88},
      {"variant": "U55C C56U G69C C85U", "polymerase ribozyme fitness (log ratio)": -4.97},
      {"variant": "C53U C62G", "polymerase ribozyme fitness (log ratio)": -1.49},
      {"variant": "U55A C73A", "polymerase ribozyme fitness (log ratio)": 0.5},
      {"variant": "C53G G60A C104A U125A U131A", "polymerase ribozyme fitness (log ratio)": -3.15},
      {"variant": "U55C G57U A66C", "polymerase ribozyme fitness (log ratio)": 0.353},
      {"variant": "C56A C73U C97U A103U G120C", "polymerase ribozyme fitness (log ratio)": -7.26},
      {"variant": "C56A G60A G69C", "polymerase ribozyme fitness (log ratio)": -3.21},
      {"variant": "C53U C79G U81C", "polymerase ribozyme fitness (log ratio)": -1.9},
      {"variant": "U54G C56U A121G C124A", "polymerase ribozyme fitness (log ratio)": -4.56},
      {"variant": "U54G C62U U81A", "polymerase ribozyme fitness (log ratio)": -1.77},
      {"variant": "U55C C123A", "polymerase ribozyme fitness (log ratio)": -0.354},
      {"variant": "C53G C72U C104A", "polymerase ribozyme fitness (log ratio)": -1.89},
      {"variant": "U55A G61U", "polymerase ribozyme fitness (log ratio)": -0.0687},
      {"variant": "U54G G71A G120C", "polymerase ribozyme fitness (log ratio)": -6.71},
      {"variant": "U55A U133A", "polymerase ribozyme fitness (log ratio)": -0.185},
      {"variant": "C56G A74U C86A", "polymerase ribozyme fitness (log ratio)": -2.4},
      {"variant": "U55G U130G", "polymerase ribozyme fitness (log ratio)": -0.58},
      {"variant": "U54G G60A U92A G107C G117A", "polymerase ribozyme fitness (log ratio)": -6.96},
      {"variant": "U55C A91U C94A", "polymerase ribozyme fitness (log ratio)": -2.3},
      {"variant": "C56A U87G A108G G113C", "polymerase ribozyme fitness (log ratio)": -3.65},
      {"variant": "C53U G60A C73A U106G C123G U126A", "polymerase ribozyme fitness (log ratio)": -2.6},
      {"variant": "U55G G117U", "polymerase ribozyme fitness (log ratio)": -2.73},
      {"variant": "U54C C94G C99U", "polymerase ribozyme fitness (log ratio)": -4.42},
      {"variant": "U54G C56U", "polymerase ribozyme fitness (log ratio)": -4.05},
      {"variant": "C56A C73A C94U G113A", "polymerase ribozyme fitness (log ratio)": -2.48},
      {"variant": "C53U G57C U78C C114A C123U", "polymerase ribozyme fitness (log ratio)": -3.58},
      {"variant": "U54G C82A A91C C115G", "polymerase ribozyme fitness (log ratio)": -4.39},
      {"variant": "U54A G60C", "polymerase ribozyme fitness (log ratio)": -0.566},
      {"variant": "C53G C70A G117A", "polymerase ribozyme fitness (log ratio)": -3.42},
      {"variant": "U55G C73G C123U", "polymerase ribozyme fitness (log ratio)": 0.666},
      {"variant": "U55A C73U A83G", "polymerase ribozyme fitness (log ratio)": -1.24},
      {"variant": "C56A A118G", "polymerase ribozyme fitness (log ratio)": -0.557},
      {"variant": "U54C G60U U133G", "polymerase ribozyme fitness (log ratio)": -0.398},
      {"variant": "C53U C62G C70U G110A", "polymerase ribozyme fitness (log ratio)": -6.1},
      {"variant": "U55G C56U C88G", "polymerase ribozyme fitness (log ratio)": -2.34},
      {"variant": "C53U G60U C80U G93C C97U C101U U133A", "polymerase ribozyme fitness (log ratio)": -3.62},
      {"variant": "U54A C70G C86U", "polymerase ribozyme fitness (log ratio)": -3.2},
      {"variant": "C53U C73U", "polymerase ribozyme fitness (log ratio)": -0.178},
      {"variant": "C53U C73A", "polymerase ribozyme fitness (log ratio)": -0.168},
      {"variant": "U54A G113A C123U", "polymerase ribozyme fitness (log ratio)": -2.23},
      {"variant": "C53U G71U", "polymerase ribozyme fitness (log ratio)": -0.192},
      {"variant": "C53U G71C", "polymerase ribozyme fitness (log ratio)": -0.133},
      {"variant": "C53G G69U", "polymerase ribozyme fitness (log ratio)": -0.127},
      {"variant": "U55C G69U A90G U112C A119U", "polymerase ribozyme fitness (log ratio)": 0.0646},
      {"variant": "U54C G71C A91U U116C", "polymerase ribozyme fitness (log ratio)": -5.63},
      {"variant": "U55C C85A G113C", "polymerase ribozyme fitness (log ratio)": -3.66},
      {"variant": "C56A G63A A91C", "polymerase ribozyme fitness (log ratio)": -5.68},
      {"variant": "U55G C56A A83G", "polymerase ribozyme fitness (log ratio)": -1.72},
      {"variant": "C53U G58U", "polymerase ribozyme fitness (log ratio)": -0.0375},
      {"variant": "U55A C64A C115G G128A", "polymerase ribozyme fitness (log ratio)": -6.49},
      {"variant": "C53G G60U C104A C114U", "polymerase ribozyme fitness (log ratio)": -5.11},
      {"variant": "C56A C99A", "polymerase ribozyme fitness (log ratio)": -6.08},
      {"variant": "C53U C85U", "polymerase ribozyme fitness (log ratio)": -1.78},
      {"variant": "C53G C73A A105C", "polymerase ribozyme fitness (log ratio)": -3.2},
      {"variant": "C53G C70G", "polymerase ribozyme fitness (log ratio)": -2.85},
      {"variant": "C53G G57U", "polymerase ribozyme fitness (log ratio)": 0.0545},
      {"variant": "C56A C97U", "polymerase ribozyme fitness (log ratio)": -1.33},
      {"variant": "U54C C98U A121U", "polymerase ribozyme fitness (log ratio)": 1.37},
      {"variant": "C56A U112A", "polymerase ribozyme fitness (log ratio)": 1.46},
      {"variant": "U54A U96C", "polymerase ribozyme fitness (log ratio)": 0.104},
      {"variant": "C53U G61A C82A C86G U133A", "polymerase ribozyme fitness (log ratio)": -1.32},
      {"variant": "C56G A75G U109C", "polymerase ribozyme fitness (log ratio)": -7.14},
      {"variant": "U54G C79A", "polymerase ribozyme fitness (log ratio)": -2.11},
      {"variant": "C53U U59C U96A", "polymerase ribozyme fitness (log ratio)": -1.65},
      {"variant": "C53G C72G C88A", "polymerase ribozyme fitness (log ratio)": -0.997},
      {"variant": "C56A G127A", "polymerase ribozyme fitness (log ratio)": -1.47},
      {"variant": "U54A G60C G113C", "polymerase ribozyme fitness (log ratio)": -2.11},
      {"variant": "U54C G122A G128U", "polymerase ribozyme fitness (log ratio)": -3.12},
      {"variant": "C53U U109G", "polymerase ribozyme fitness (log ratio)": -4.32},
      {"variant": "U54C C82U U106A U109A G135U", "polymerase ribozyme fitness (log ratio)": -4.59},
      {"variant": "U55C C88U", "polymerase ribozyme fitness (log ratio)": -0.394},
      {"variant": "U55A C56A", "polymerase ribozyme fitness (log ratio)": -0.0197},
      {"variant": "U54A G127C", "polymerase ribozyme fitness (log ratio)": -0.488},
      {"variant": "C56G C72G C115A", "polymerase ribozyme fitness (log ratio)": -2.98},
      {"variant": "C53U C114A", "polymerase ribozyme fitness (log ratio)": -1.2},
      {"variant": "C56G G69U U81A C88A A100U", "polymerase ribozyme fitness (log ratio)": -2.69},
      {"variant": "C53U C124U", "polymerase ribozyme fitness (log ratio)": 1.92},
      {"variant": "C53U C124G", "polymerase ribozyme fitness (log ratio)": 1.61},
      {"variant": "C53G U87G G127U U133G", "polymerase ribozyme fitness (log ratio)": -0.973},
      {"variant": "C53G U81A U131G", "polymerase ribozyme fitness (log ratio)": -0.825},
      {"variant": "U54C C79A C98U C101A", "polymerase ribozyme fitness (log ratio)": -5.66},
      {"variant": "U55G G61A C73U U81A C114A A119U", "polymerase ribozyme fitness (log ratio)": -3.58}
    ]}
  ]
}
